The RNAGym collection of RNA variant scans (doi:10.1073/pnas.2313332121)

B1: TPR t1 (parent)
chain: GACCAAUCUGCCCUCAGAGCUCGAGAACAUCUUCGGAUGCAGAGGAGGCAGGCUUCGGUGGCGCGAUAGCGCCAACGUCCUCAACCUCCAAUGCAUCCCACCACAUGAUGAUGCCUGAAGAGCCUUGGUUUUUUG

Variants of: B1
Experiment: polymerase ribozyme fitness, log enrichment relative to wild type (log ratio); higher = more active; in vitro selection for triplet polymerase activity
Method in brief: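 Mutant libraries were PCR-built and transcribed for each subunit of a heterodimeric triplet polymerase ribozyme and selected for one round in triplicate at −7 °C, frozen, before gel excision of extended constructs and streptavidin-bead capture. Input and output libraries were Illumina-sequenced, keeping genotypes with ≥10 input reads and ≥1 read per output. Fitness is a logarithmic ratio of genotype to wild-type enrichment, in base 2, using inverse-variance-weighted replicate averages.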
In the case of GACCAAUCUGCCCUCAGAGCUCGAGAACAUCUUCGGAUGUAGAGGAGGCAGGUUUCGGUGGCGCGAUAGCGCCAACGUCCUCAACCUCCAAUGCAUCCCACCACAUGAUGAUGCCUGAAGGGCCUUGGUUUUUUG, the “polymerase ribozyme fitness (log ratio)” value is reported as 1.58. With GACCAAUCUGCCCUCAGAGCUCGAGAACAUCUUCGGAUGCAGAGGAGGCAGUCUUCGGUGGCGCGAUAGCGCCAACGUCCUCAACCUCCAAUGCAUCCCACCACAUGAUGAGGCCUGAAGAGCCUUGGUUUUUUG the “polymerase ribozyme fitness (log ratio)” value was -0.37. With GACCAAUUUGCCCUCAGAGCUCGAGAACAUCUUCGGAUGCAGAGGAGGCAGGCUUCGGUGGCGCGAUAGCGCCAACGUCCUCAACCUCCAAUGCAUCCCACCACAUGAUGAUGCCUGGAGAGCCUUGGUUUUUUG the “polymerase ribozyme fitness (log ratio)” value was -0.114. With GACCAAUCUGCCCUCAGAGCUCGAGAACAUCUUCGGAUGCAGAGGAGCCAGGCUUCGGUGGUGCGAUAGCGCCAGCGUCCUCAACCUCCAAUGCAUCCCACCACAUGAUGAUGCCUGAAGAGCCUUGGUUUUUUG the “polymerase ribozyme fitness (log ratio)” value was -1.21. In the case of GACCAAUCUGCCCUCAGAGCUCGAGAACAUCUUCGGAUGCAGAGGAGGCAGGCUUCGGUGGCGCGAUAGCGCCAACGUCCUCAACCUCCAAUGCAUCCCACCACAAGAUGAUGCCUGAAGAGACUUGGUUUUUUG, the “polymerase ribozyme fitness (log ratio)” value is reported as 0.524. For GACCAAUCUGCCCUCAGAGAUCGAGAACAUCUUCGGAUGCAGAGGAGGCAGGCUUCGGUGGCGCGAUAGGGCCAACGUCCUCAACCUCCAAUGCAUCCCACCACAUGAUGAUGCCUGAAGAGCCUUGGUUUUUUG, the “polymerase ribozyme fitness (log ratio)” value was -5.59. For GACCAAUCUGCCCUCAGAGCUCGGGAACAUCUUCGGAUACAGAGGAGGCAGGCUUCGGUGGCGCGAUAGUGCCAACGUCCUCAACCUCCAAUGCAUCCCACCACAUGAUGAUGCCUGAAGGGCCUUGGUUUUUUG, the “polymerase ribozyme fitness (log ratio)” value was -0.648. In the case of GACCAAUCUGCCUUCAGAGCUCGAGAACAUCUUCGGAUGCAGAGGAGGCAGGCUUCGGUGGCGCGAUAGCGCCAACGUCCUCAAGCUCCAAUGCAUCCCACCACAUGAUGAUGCCUGAAGAGUCUUGGUUUUUUG, the “polymerase ribozyme fitness (log ratio)” value is reported as 0.618. With GACCAAUCUGACCUCAGAGCUCGAGAACAUCUUCGGAUGCAGAGGAGGCAGGCUUCGCGGGCGCGAUAGCGCCAACGUCCACAACCUCCAAUGCAUCCCACCACAUGAUGAUGCCUGAAGAGCCUUGGUUUUUUG the “polymerase ribozyme fitness (log ratio)” value was -2.19. In the case of GACCAAUCUUCCCUCAGAGCUCGAGAACAUCUUCGGAUGCAGAGGAGGCAGGCUUCGGUGGCGCGAUAGCGCCAACGUCCUCAACCUCCAAUGCAUUCCACCACAUGAUGAUGCCUGAAGAGCCUUGGUUUUUUG, the “polymerase ribozyme fitness (log ratio)” value is reported as -0.693. In the case of GACCAAUCUGCGCUCAGAGCUCGAGAACAUCUUCGGAUGCAGAGGAGGCAGGCUUCGGUGGCGCGAUAGCGCUAACGUCCUCAACCUCCAAUGCAUACCACCACAUGAUGAUGCCUGAAGAGCCUUGGUUUUUUG, the “polymerase ribozyme fitness (log ratio)” value is reported as -4.85. For GACCAAUCUGCCCUCAGAGCUCGAGAACAUCUUCGGAUGCAGAGGAGGCAGGCUUCGGUGGCGCGAUAGCGCCAACGCCCUCAACCUCCAAUGCAUCCCACCAAAUGAUGAUUCCUGAAGAGCCUUGGUUUUUUG, the “polymerase ribozyme fitness (log ratio)” value was -4.71. With GACCAAUCUGCCCUCAGAGCUCGAGAACAUCUUCGGAUGCUGAGGAGGCAGGCUUCGGUGGCGCGAUAGCGCCAACGUCCUCAACCUCCAAUGCAUCCCACCACAUGAUGUUGCCUGAAGAGCCUUGGUUUUUUG the “polymerase ribozyme fitness (log ratio)” value was -4.55. With GACCAAUCUGCCCUCAGAGCUCGAGAACAUCUUCGGAUGCAGAGGAGGCCGGCUUCGGUCGCGCGAUAGCGCCAACGUCCUCAACCUCCAAUGCAUCCCACCACAUGAUGAUGCCUGAAGAGCCUUGGUUUUUUG the “polymerase ribozyme fitness (log ratio)” value was -1.73. For GACCAAUCUGCCCUCAGAGCUCGAGAAUAUCUUAGGAUGCAGAGGAGGCAGGGUUCGGUGGCGCGAUAGCGCCAACGUCCUCAACCUCCAAUGCAUCCCACCACAUGAUGAUGCCUGAAGAGCAUUGGUUUUUUG, the “polymerase ribozyme fitness (log ratio)” value was -4.41. For GACCAAUCUGCCCUCAGAGGUCGAGAACAUCUUCGGAUGCAGAGGAGGCAGGCUUGGGUGGCGCGAUAGCGCCAACGUCCUCAACCUCCAAUGCCUCCCACCACAUGAUGAUGCCUUAAGAGCAUUGGUUUUUUG, the “polymerase ribozyme fitness (log ratio)” value was -3.93. For GACCAAUCUGCCCUCAGAGCUCGAGAACAUCUUCGGAUGUAGAGGAGGCAGGCUUCUGUGGCGCGAUAGCGCCAACGUCCUCAACCUCCAAUGCAUCCCACCACAUGAUGAUGCCUGAAGAGCCUUGGUUUUUUG, the “polymerase ribozyme fitness (log ratio)” value was -0.292. In the case of GACCAAUCUGCCCUCAGAGCUCGAGAACAUCUUCGGAUGCAGAAGAGGCAGGCUUCGGUGGCGCGAUAGCGCCAACGUCCUCAACCUCCAAUGCAUCCCACCACAUGAUGAUGCCUGUAGAGCCUUGGUUUUUUG, the “polymerase ribozyme fitness (log ratio)” value is reported as -0.0596. For GACCAAUCUGCCCUCAGAGCUCGAGAACAUCUUCGGAUGCAGAGGAGGCAGGCUUCGGUGGCGCGAUAGCGACAACGUCCUCAACCUCCAAUGCAUCCCACUACAUGAUGAUGCCUGAAGAGAGUUGGUUUUUUG, the “polymerase ribozyme fitness (log ratio)” value was 0.156. In the case of GACCAAUCUGCCCUCAGAGCUCGAGAACAUCUUCGGAUGCAGAGGAGGCAGGCGUCGGUGGCCCGAUAGCGCCAACGUCCUCAACGUCCAAUGCAUCCCACCACAUGAUGAUGACUGAAGAGCCUUGGUUUUCUG, the “polymerase ribozyme fitness (log ratio)” value is reported as -3.86. In the case of GACCAAUCUGCCCUCAGAGCUCGAGAACAUCUUCGGAUGCAGAGGAGGCAGGCUUCGGUAGCGCGAUAGCACCAACGUCCUCAACCUCCUAUGAAUCCCACCACAUGAUCAUGCCUGAAGAGCCUUGGUUUUUUG, the “polymerase ribozyme fitness (log ratio)” value is reported as -6.47.
